Drawing on the Immune Epitope Database (IEDB), this text covers Kd for 17 sequences.

As usually defined, the Kd is the free concentration of one partner at which half of the binding sites on the other are occupied at equilibrium, for simple one-to-one binding. Higher therefore signals a looser complex.

Some results are limits rather than exact numbers.

Assay [1] deals with HLA-A*23:01. The assay can be described thus: IEDB peptide-MHC binding, purified MHC/competitive/fluorescence; filed as Kd, often an IC50 or EC50 that approximates it; ≥ and ≤ were set here for values at or beyond the usual limits of such assays. The following applies: source organism: Vibrio cholerae 2740-80.
The target in assay [2] is HLA-B*27:05. Briefly: IEDB peptide-MHC binding, purified MHC/direct/fluorescence; filed as Kd, often an IC50 or EC50 that approximates it; ≥ and ≤ were set here for values at or beyond the usual limits of such assays.
In assay [3] the target is HLA-B*08:02. Described as above.
Assay [4] addresses HLA-C*15:02. The description is as above.
For assay [5], the target named is HLA-A*01:01. Described as above.
In assay [6] the target is HLA-B*44:02. The description is as above.
Assay [7] has as its target HLA-B*48:01. Described as above.
For assay [8], the target named is HLA-B*46:01. The description is as above.
The target of assay [9] is HLA-B*15:01. The description is as above.
The target in assay [10] is HLA-A*31:01. The description is as above.
Assay [11] deals with HLA-B*07:02. The description is as above.
In assay [12] the target is HLA-B*57:01. The assay is described as above.
The target of assay [13] is HLA-A*30:01. The assay is described as above.
Assay [14] has as its target HLA-C*14:02. Described as above. The following applies: source organism: Burkholderia mallei SAVP1.
Assay [15] addresses HLA-B*18:01. Described as above.
Assay [16] addresses HLA-A*26:02. The description is as above.
For assay [17], the target named is HLA-B*40:01. Described as above.
Assay [18] deals with HLA-A*26:01. The description is as above.
Assay [19] addresses HLA-B*08:01. Described as above.
The target in assay [20] is HLA-B*58:01. The assay is described as above.
Assay [21] deals with HLA-A*11:01. The description is as above.
For assay [22], the target named is HLA-B*35:01. The description is as above.
Assay [23] has as its target HLA-A*02:01. Described as above.
The target in assay [24] is HLA-A*03:01. The description is as above.
The target in assay [25] is HLA-A*69:01. The description is as above.
In assay [26] the target is HLA-A*11:01. The assay can be described thus: IEDB peptide-MHC binding, purified MHC/competitive/fluorescence; filed as Kd, often an IC50 or EC50 that approximates it; ≥ and ≤ were set here for values at or beyond the usual limits of such assays.
The target of assay [27] is HLA-B*15:17. Briefly: IEDB peptide-MHC binding, purified MHC/direct/fluorescence; filed as Kd, often an IC50 or EC50 that approximates it; ≥ and ≤ were set here for values at or beyond the usual limits of such assays. As to conditions: source organism: Entamoeba histolytica.
Assay [28] deals with HLA-A*68:02. The assay is described as above. As to conditions: source organism: Entamoeba histolytica.
The target in assay [29] is HLA-B*46:01. Briefly: IEDB peptide-MHC binding, purified MHC/competitive/fluorescence; filed as Kd, often an IC50 or EC50 that approximates it; ≥ and ≤ were set here for values at or beyond the usual limits of such assays. As to conditions: source organism: Yellow fever virus.
In assay [30] the target is HLA-A*24:03. The assay can be described thus: IEDB peptide-MHC binding, purified MHC/direct/fluorescence; filed as Kd, often an IC50 or EC50 that approximates it; ≥ and ≤ were set here for values at or beyond the usual limits of such assays.
The target in assay [31] is HLA-C*03:03. The description is as above. The following applies: source organism: Chelativorans sp. BNC1.
The mark [32] stands for this setting: source organism: Yellow fever virus strain Ghana/Asibi/1927.
The mark [33] stands for this setting: source organism: Yellow fever virus.
Setting [34] is: source organism: Salmonella enterica.
The mark [35] stands for this setting: source organism: Entamoeba histolytica.
Setting [36] is: source organism: Pseudomonas putida.
The mark [37] stands for this setting: source organism: Vibrio cholerae.
[38] abbreviates: source organism: Vibrio vulnificus.
Where [39] appears, read: source organism: Aggregatibacter actinomycetemcomitans.
Where [40] appears, read: source organism: Orthohantavirus hantanense.

In [1], FVQGVIWNI returned a dissociation constant (Kd) of 0.0365 µM.

Consider AIHPFALLL, for which the equilibrium dissociation constant (Kd) in [2] (setting [32]) is at least 20 µM; in [3] (setting [33]), at least 20 µM; in [4] (setting [33]), 0.099 µM; in assay [5] (setting [32]) it was at least 20 µM; in assay [6] (setting [32]), at least 20 µM; in [7] (setting [32]), at least 20 µM. Moreover, the equilibrium dissociation constant (Kd) in assay [8] (setting [32]), in [9] (setting [32]), in assay [10] (setting [32]), in [11] (setting [32]) and in assay [12] (setting [32]) was at least 20 µM in each case.

For the sequence EYVGKTVWF, in [13] (source organism: West Nile virus SPU116/89), the Kd was at least 20 µM.

For WWLEYTASF, the dissociation constant (Kd) is at least 20 µM in assay [4] (source organism: Burkholderia mallei SAVP1), 0.077 µM in assay [14] and 0.068 µM in assay [15] (source organism: Burkholderia mallei ATCC 23344).

In turn, ETLETLLLL came in with a Kd in [16] (source organism: Dengue virus 2 Thailand/16681/84) of 0.055 µM.

Take AHSKAETEA: the equilibrium dissociation constant (Kd) in assay [2] (setting [34]), in assay [17] (setting [34]), in assay [18] (setting [34]), in assay [5] (setting [34]), in assay [6] (setting [34]) and in assay [19] (setting [34]) was at least 20 µM each time. The dissociation constant Kd in assay [20] (setting [34]), in assay [21] (setting [34]), in assay [22] (source organism: Salmonella enterica subsp. enterica serovar Typhimurium), in [23] (setting [34]), in assay [9] (setting [34]) and in assay [24] (setting [34]) was at least 20 µM in each case. The dissociation constant (Kd) in [10] (setting [34]), in assay [25] (setting [34]) and in assay [11] (setting [34]) was at least 20 µM each time.

Sequence TLYCVHQR gave a Kd in assay [26] (source organism: Human immunodeficiency virus 1) of 0.111 µM.

For the sequence SGIDTNAYY, the Kd in assay [18] (source organism: West Nile virus) and in [16] (source organism: West Nile virus strain PTRoxo) was at least 20 µM each time.

For DFGYATMAK, the Kd in [2] (setting [35]), in [17] (setting [35]), in assay [3] (setting [35]), in [18] (setting [35]), in [16] (setting [35]) and in [5] (setting [35]) was at least 20 µM in each case. The Kd was at least 20 µM in assay [27]; at least 20 µM in [28]; at least 20 µM in assay [19] (setting [35]); at least 20 µM in assay [20] (setting [35]); 0.836 µM in [21] (setting [35]); at least 20 µM in assay [23] (setting [35]). In addition, the equilibrium dissociation constant (Kd) is at least 20 µM in assay [7] (setting [35]); at least 20 µM in assay [8] (setting [35]); at least 20 µM in [9] (setting [35]); 1.6 µM in assay [24] (setting [35]); at least 20 µM in assay [10] (setting [35]); at least 20 µM in [15] (setting [35]). In addition, the dissociation constant Kd in assay [11] (setting [35]) and in [12] (setting [35]) was at least 20 µM in each case.

With HTAEIQQFF, the dissociation constant (Kd) amounted to 0.00541 µM in assay [18] (setting [36]); 0.67 µM in assay [5] (setting [36]); 0.171 µM in [22] (setting [36]); 0.0906 µM in [9] (setting [36]); 1.15 µM in [10] (setting [36]); 0.0328 µM in [25] (setting [36]).

WAGIWGGKL: the dissociation constant Kd in assay [2] (setting [37]), in assay [17] (setting [37]), in assay [18] (setting [37]), in assay [5] (setting [37]), in assay [6] (setting [37]) and in assay [19] (setting [37]) was at least 20 µM each time. For the same sequence, the equilibrium dissociation constant (Kd) was at least 20 µM in [20] (setting [37]); at least 20 µM in [21] (setting [37]); 0.342 µM in assay [22] (setting [37]); at least 20 µM in assay [23] (setting [37]); at least 20 µM in assay [9] (setting [37]); at least 20 µM in [24] (setting [37]). The figures for the dissociation constant (Kd) in [10] (setting [37]), in assay [25] (setting [37]) and in [11] (setting [37]) were at least 20 µM, 0.242 µM and 13 µM, respectively.

EAMDTISVF: the Kd in assay [16] (setting [33]) is at most 0.001 µM; in [29] it was 0.53 µM.

For the sequence QSPQPVRVK, the Kd in [2] (setting [38]), in [17] (setting [38]), in assay [18] (setting [38]), in [5] (setting [38]), in [19] (setting [38]) and in assay [20] (setting [38]) was at least 20 µM each time. Also, the Kd in [21] (setting [38]) is 12.2 µM; in assay [23] (setting [38]), at least 20 µM; in assay [13] (setting [38]) it was 3.75 µM; in [9] (setting [38]), at least 20 µM; in assay [24] (setting [38]), 19.3 µM; in assay [25] (setting [38]) it was at least 20 µM. Also, the Kd in [11] (setting [38]) and in [30] (setting [38]) was at least 20 µM throughout.

Sequence RTLASGLIY yielded a Kd in [26] (source organism: Yersinia pestis Nepal516) of 0.0673 µM.

On to TTRAWFDKK, for which the Kd in assay [2] (setting [39]), in assay [17] (setting [39]), in [18] (setting [39]), in assay [5] (setting [39]), in assay [19] (setting [39]) and in assay [20] (setting [39]) was at least 20 µM each time. Also, the Kd in assay [21] (setting [39]) is 0.127 µM; in assay [23] (setting [39]), at least 20 µM; in assay [13] (setting [39]), 0.00023 µM; in assay [9] (setting [39]) it was at least 20 µM; in assay [24] (setting [39]), 2.99 µM; in [10] (setting [39]), 0.0607 µM. Moreover, the equilibrium dissociation constant (Kd) in assay [25] (setting [39]), in [11] (setting [39]) and in assay [30] (setting [39]) was at least 20 µM throughout.

Consider WALDVPMYF, for which the dissociation constant Kd in assay [4] (source organism: Chelativorans sp. BNC1) was 0.179 µM; in assay [20] (source organism: Aurantimonas manganoxydans), 0.0036 µM; in [12] (source organism: Brucella suis 1330) it was 0.034 µM; in assay [31], at most 0.001 µM.

Consider RLNLKTSFH, for which the equilibrium dissociation constant (Kd) in assay [21] (setting [40]) came out at 1.35 µM; in assay [13] (source organism: Sapporo rat virus), 0.1 µM; in [24] (setting [40]) it was 0.407 µM.
